# Assay results reported in US20210246166A1 (Bayer, published 2021).
# Bridge positions count the residues as written; N and C are the ends. Ends that are not written are not given here.
# T1: Recombinant rat MASP1 enzyme (fragment corresponding to amino acids 302-704, C-terminal His Tag) (rat, UniProt Q8CHN8 302-704)
# T1 sequence: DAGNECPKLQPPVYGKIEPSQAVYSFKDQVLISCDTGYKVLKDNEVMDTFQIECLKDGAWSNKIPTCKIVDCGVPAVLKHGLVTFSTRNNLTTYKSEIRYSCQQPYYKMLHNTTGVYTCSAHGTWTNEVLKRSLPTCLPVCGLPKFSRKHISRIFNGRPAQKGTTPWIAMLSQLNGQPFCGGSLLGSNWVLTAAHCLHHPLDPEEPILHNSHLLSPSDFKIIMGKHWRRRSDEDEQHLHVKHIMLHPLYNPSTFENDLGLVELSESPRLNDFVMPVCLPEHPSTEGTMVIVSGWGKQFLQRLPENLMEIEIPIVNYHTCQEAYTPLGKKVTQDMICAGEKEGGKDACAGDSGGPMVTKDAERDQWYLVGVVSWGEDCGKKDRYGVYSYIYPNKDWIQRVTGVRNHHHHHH
# Experiments:
# [1] = biological target: T1, Recombinant rat MASP1 enzyme (fragment …); assay: cell-based or functional assay
# [2] = biological target: Recombinant rat MASP2 enzyme (fragment corresponding to amino acids 296-685, C-terminal His Tag) (rat, UniProt Q9JJS8 296-685); assay: cell-based or functional assay
# Chain of Recombinant rat MASP2 enzyme (fragment corresponding to amino acids 296-685, C-terminal His Tag) (Q9JJS8 other isoform, or with tags, fused parts or gaps limits assumed): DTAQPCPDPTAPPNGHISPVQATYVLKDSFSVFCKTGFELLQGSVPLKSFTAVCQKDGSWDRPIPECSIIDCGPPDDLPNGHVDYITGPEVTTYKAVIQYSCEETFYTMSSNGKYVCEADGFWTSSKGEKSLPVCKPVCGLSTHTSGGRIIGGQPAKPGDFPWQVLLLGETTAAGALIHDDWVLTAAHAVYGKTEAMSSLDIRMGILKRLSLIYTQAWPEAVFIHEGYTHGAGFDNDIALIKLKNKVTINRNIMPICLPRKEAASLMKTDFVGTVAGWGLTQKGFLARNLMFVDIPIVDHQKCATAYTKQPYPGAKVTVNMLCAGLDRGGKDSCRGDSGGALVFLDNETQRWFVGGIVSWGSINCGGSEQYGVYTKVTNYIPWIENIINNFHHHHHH
rat MASP1 IC50 [1],rat MASP2 IC50 [2],Binder
68.6 nM,68 nM,GICSRSLPPICIPD-OH (disulfide 3-11; N-terminus assumed; SMILES CC[C@H](C)[C@H](NC(=O)CN)C(=O)N[C@H]1CSSC[C@@H](C(=O)N[C@H](C(=O)N2CCC[C@H]2C(=O)N[C@@H](CC(=O)O)C(=O)O)[C@@H](C)CC)NC(=O)[C@H]([C@@H](C)CC)NC(=O)[C@@H]2CCCN2C(=O)[C@@H]2CCCN2C(=O)[C@H](CC(C)C)NC(=O)[C@H](CO)NC(=O)[C@H](CCCNC(=N)N)NC(=O)[C@H](CO)NC1=O) [GIC+SRSLPPIC+IPD-OH]
50.2 nM,68.4 nM,AICSRSLPPICIPD-OH (disulfide 3-11; N-terminus assumed; SMILES CC[C@H](C)[C@H](NC(=O)[C@H](C)N)C(=O)N[C@H]1CSSC[C@@H](C(=O)N[C@H](C(=O)N2CCC[C@H]2C(=O)N[C@@H](CC(=O)O)C(=O)O)[C@@H](C)CC)NC(=O)[C@H]([C@@H](C)CC)NC(=O)[C@@H]2CCCN2C(=O)[C@@H]2CCCN2C(=O)[C@H](CC(C)C)NC(=O)[C@H](CO)NC(=O)[C@H](CCCNC(=N)N)NC(=O)[C@H](CO)NC1=O) [AIC+SRSLPPIC+IPD-OH]

# The next lines start with the binder.
Binder,rat MASP1 IC50 [1],rat MASP2 IC50 [2]
AICSRSLPPICIPD-NH2 (disulfide 3-11; also: HCl salt) [AIC+SRSLPPIC+IPD-NH2 (HCl Salt)],210 nM,–
AICSRSLPPICIPD-NH2 (disulfide 3-11; N-terminus assumed; SMILES CC[C@H](C)[C@H](NC(=O)[C@H](C)N)C(=O)N[C@H]1CSSC[C@@H](C(=O)N[C@H](C(=O)N2CCC[C@H]2C(=O)N[C@@H](CC(=O)O)C(N)=O)[C@@H](C)CC)NC(=O)[C@H]([C@@H](C)CC)NC(=O)[C@@H]2CCCN2C(=O)[C@@H]2CCCN2C(=O)[C@H](CC(C)C)NC(=O)[C@H](CO)NC(=O)[C@H](CCCNC(=N)N)NC(=O)[C@H](CO)NC1=O) [AIC+SRSLPPIC+IPD-NH2],83.4 nM,54.2 nM
